Here are results for two molecules from paper PMC2133042.

Where “and” joins values, the source holds several entries; their conditions need not be identical. Identical values can stand only once.

Usually stoichiometry N stands for a count of units in the complex or per binding partner.

Test [1] has as its target KKAA construct (myc-tagged ERGIC-53 with its cytoplasmic tail mutated to R2A6KKAA) (human).
The target in test [2] is T1, KKFF (myc-tagged wild-type ERGIC-53) (human), P49257.
T1 chain: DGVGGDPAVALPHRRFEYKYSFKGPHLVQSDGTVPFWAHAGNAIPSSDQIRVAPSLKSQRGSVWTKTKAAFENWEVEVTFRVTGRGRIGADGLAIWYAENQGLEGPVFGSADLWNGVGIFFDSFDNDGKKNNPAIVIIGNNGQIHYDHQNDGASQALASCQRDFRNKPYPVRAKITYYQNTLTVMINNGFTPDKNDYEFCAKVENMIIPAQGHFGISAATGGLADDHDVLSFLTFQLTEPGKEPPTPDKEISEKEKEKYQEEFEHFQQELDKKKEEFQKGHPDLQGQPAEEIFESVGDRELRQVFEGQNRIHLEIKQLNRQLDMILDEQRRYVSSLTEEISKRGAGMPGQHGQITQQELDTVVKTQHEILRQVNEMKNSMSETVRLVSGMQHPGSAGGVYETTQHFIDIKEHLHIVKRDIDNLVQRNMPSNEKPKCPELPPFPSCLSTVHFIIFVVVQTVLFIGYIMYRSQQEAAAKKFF
As to conditions: remark: other sources report otherwise.

Take “KKAA construct (myc-tagged ERGIC-53 with its cytoplasmic tail mutated to R2A6KKAA) (natural protein)”: the stoichiometry N in test [1] was 2 and 6.

B1: KKFF (myc-tagged wild-type ERGIC-53), P49257 31-510 (natural protein)
chain: T1 chain
Regarding B1, in test [2], the stoichiometry N is 2 and 6.
